According to patent US20190077849A1 (US Dept. of Health and Human Services, published 2019):
Changes are numbered by the printed parent chain. Names may count otherwise. “And” between values parts separate entries of the source, which are not always exact repeats. Equal values may be shown once. Read-outs that look alike come from different tables or passages of the source.

Columns and labels:
[1] = biological target: HIV-1 Env of KER2008.12.SG3 pseudovirus (clade A) (HIV-1); experiment: cell-based or functional assay
[2] = biological target: HIV-1 Env of TH966.8.SG3 pseudovirus (clade AE) (HIV-1); experiment: cell-based or functional assay
[3] = biological target: HIV-1 Env of PVO.04.SG3 pseudovirus (clade B) (HIV-1); experiment: cell-based or functional assay
[4] = biological target: HIV-1 Env of CNE31.SG3 pseudovirus (clade C) (HIV-1); experiment: cell-based or functional assay
[5] = biological target: HIV-1 Env of ZM106.9.SG3 pseudovirus (clade C) (HIV-1); experiment: cell-based or functional assay
[6] = biological target: HIV-1 Env of KER2008.12.SG3 pseudovirus (clade A) (HIV-1); experiment: cell-based or functional assay; remark: listed apart in the source
[7] = biological target: T1, HIV-1 Env of 6095.V1.C10.SG3 pseudovirus (clade ACD) (HIV-1); experiment: cell-based or functional assay
[8] = biological target: HIV-1 Env of TH966.8.SG3 pseudovirus (clade AE) (HIV-1); experiment: cell-based or functional assay; remark: listed apart in the source
[9] = biological target: HIV-1 Env of 6101.10.SG3 pseudovirus (clade B) (HIV-1); experiment: cell-based or functional assay
[10] = biological target: HIV-1 Env of PVO.04.SG3 pseudovirus (clade B) (HIV-1); experiment: cell-based or functional assay; remark: listed apart in the source
[11] = biological target: T2, HIV-1 Env of YU2.DG.SG3 pseudovirus (clade B) (HIV-1, UniProt P35961 32-843); experiment: cell-based or functional assay
[12] = biological target: HIV-1 Env of CNE31.SG3 pseudovirus (clade C) (HIV-1); experiment: cell-based or functional assay; remark: listed apart in the source
[13] = biological target: HIV-1 Env of ZM106.9.SG3 pseudovirus (clade C) (HIV-1); experiment: cell-based or functional assay; remark: listed apart in the source
[14] = biological target: HIV-1 Env of ZM215.8.SG3 pseudovirus (clade C) (HIV-1); experiment: cell-based or functional assay
[15] = biological target: HIV-1 Env of KER2008.12.SG3 pseudovirus (clade A) (HIV-1); experiment: cell-based or functional assay; remark: listed apart in the source
[16] = biological target: T1, HIV-1 Env of 6095.V1.C10.SG3 …; experiment: cell-based or functional assay; remark: listed apart in the source
[17] = biological target: HIV-1 Env of TH966.8.SG3 pseudovirus (clade AE) (HIV-1); experiment: cell-based or functional assay; remark: listed apart in the source
[18] = biological target: HIV-1 Env of 6101.10.SG3 pseudovirus (clade B) (HIV-1); experiment: cell-based or functional assay; remark: listed apart in the source
[19] = biological target: HIV-1 Env of PVO.04.SG3 pseudovirus (clade B) (HIV-1); experiment: cell-based or functional assay; remark: listed apart in the source
[20] = biological target: T2, HIV-1 Env of YU2.DG.SG3 pseudovirus …; experiment: cell-based or functional assay; remark: listed apart in the source
[21] = biological target: HIV-1 Env of CNE31.SG3 pseudovirus (clade C) (HIV-1); experiment: cell-based or functional assay; remark: listed apart in the source
[22] = biological target: HIV-1 Env of ZM106.9.SG3 pseudovirus (clade C) (HIV-1); experiment: cell-based or functional assay; remark: listed apart in the source
[23] = biological target: HIV-1 Env of ZM215.8.SG3 pseudovirus (clade C) (HIV-1); experiment: cell-based or functional assay; remark: listed apart in the source
MPER peptide = biological target: T3, MPER peptide (HIV-1); experiment: MPER peptide binding assay (method not given)
T3 construct: also called gp41 MPER peptide

B1: 10E8 variant 4 (H6-511-4mut VH + rL3-6mut VL) (antibody, V domains shown)
VH: EVRLVESGGGLVKPGGSLRLSCSASGFDFDNAWMTWVRQPPGKGLEWVGRITGPGEGWSVDYAESVKGRFTISRDNTKNTLYLEMNNVRTEDTGYYFCARTGKYYDFWSGYPPGEEYFQDWGQGTLVIVSS
VL: ASELTQDPAVSVALKQTVTITCRGDSLRSHYASWYQKKPGQAPVLLFYGKNNRPSGIPDRFSGSASGNRASLTITGAQAEDEADYYCSSRDKSGSRLSVFGGGTKLTVL
IC50, pseudovirus neutralization [1]: > 50 µg/mL
IC50, pseudovirus neutralization [2]: 0.036 µg/mL and 0.021 µg/mL
IC50, pseudovirus neutralization [3]: 2.39 µg/mL and 1.13 µg/mL
IC50, pseudovirus neutralization [4]: 1.16 µg/mL
IC50, pseudovirus neutralization [5]: > 50 µg/mL
IC50, pseudovirus neutralization [6]: > 50 µg/mL
IC80, pseudovirus neutralization [6]: > 50 µg/mL
IC50, pseudovirus neutralization [7]: 0.004 µg/mL
IC80, pseudovirus neutralization [7]: 0.021 µg/mL
IC50, pseudovirus neutralization [8]: 0.026 µg/mL
IC80, pseudovirus neutralization [8]: 0.169 µg/mL
IC50, pseudovirus neutralization [9]: 0.011 µg/mL
IC80, pseudovirus neutralization [9]: 0.09 µg/mL
IC50, pseudovirus neutralization [10]: 0.894 µg/mL
IC80, pseudovirus neutralization [10]: 8 µg/mL
IC50, pseudovirus neutralization [11]: 0.668 µg/mL
IC80, pseudovirus neutralization [11]: 5.32 µg/mL
IC50, pseudovirus neutralization [12]: 1.74 µg/mL
IC80, pseudovirus neutralization [12]: 4.85 µg/mL
IC50, pseudovirus neutralization [13]: > 50 µg/mL
IC80, pseudovirus neutralization [13]: > 50 µg/mL
IC50, pseudovirus neutralization [14]: 0.042 µg/mL
IC80, pseudovirus neutralization [14]: 0.326 µg/mL
IC50, pseudovirus neutralization [15]: > 50 µg/mL
IC80, pseudovirus neutralization [15]: > 50 µg/mL
IC50, pseudovirus neutralization [16]: 0.004 µg/mL
IC80, pseudovirus neutralization [16]: 0.015 µg/mL
IC50, pseudovirus neutralization [17]: 0.056 µg/mL
IC80, pseudovirus neutralization [17]: 0.291 µg/mL
IC50, pseudovirus neutralization [18]: 0.052 µg/mL
IC80, pseudovirus neutralization [18]: 0.263 µg/mL
IC50, pseudovirus neutralization [19]: 3.07 µg/mL
IC80, pseudovirus neutralization [19]: 11.9 µg/mL
IC50, pseudovirus neutralization [20]: 1.49 µg/mL
IC80, pseudovirus neutralization [20]: 6.33 µg/mL
IC50, pseudovirus neutralization [21]: 1.32 µg/mL
IC80, pseudovirus neutralization [21]: 4.04 µg/mL
IC50, pseudovirus neutralization [22]: > 50 µg/mL
IC80, pseudovirus neutralization [22]: > 50 µg/mL
IC50, pseudovirus neutralization [23]: 0.122 µg/mL
IC80, pseudovirus neutralization [23]: 0.502 µg/mL

B2: 10E8v4-DS (VH Y100eC and VL S30C substitutions) (antibody, V domains shown)
VH: B1 VH with Y111C
VL: B1 VL with S29C
IC50, pseudovirus neutralization [6]: > 50 µg/mL
IC80, pseudovirus neutralization [6]: > 50 µg/mL
IC50, pseudovirus neutralization [7]: 0.002 µg/mL
IC80, pseudovirus neutralization [7]: 0.017 µg/mL
IC50, pseudovirus neutralization [8]: 0.092 µg/mL
IC80, pseudovirus neutralization [8]: 0.345 µg/mL
IC50, pseudovirus neutralization [9]: 2.41 µg/mL
IC80, pseudovirus neutralization [9]: 22.2 µg/mL
IC50, pseudovirus neutralization [10]: 2.53 µg/mL
IC80, pseudovirus neutralization [10]: 10.1 µg/mL
IC50, pseudovirus neutralization [11]: 0.275 µg/mL
IC80, pseudovirus neutralization [11]: 2.44 µg/mL
IC50, pseudovirus neutralization [12]: 2.28 µg/mL
IC80, pseudovirus neutralization [12]: 6.48 µg/mL
IC50, pseudovirus neutralization [13]: > 50 µg/mL
IC80, pseudovirus neutralization [13]: > 50 µg/mL
IC50, pseudovirus neutralization [14]: 0.208 µg/mL
IC80, pseudovirus neutralization [14]: 0.798 µg/mL
fold tighter binding than 10E8v4 (MPER peptide): 2 fold

B3: 10E8v4 S100cW-DS (antibody, V domains shown)
VH: B1 VH with S109W, Y111C
VL: B1 VL with S29C
IC50, pseudovirus neutralization [6]: > 50 µg/mL
IC80, pseudovirus neutralization [6]: > 50 µg/mL
IC50, pseudovirus neutralization [7]: 0.002 µg/mL
IC80, pseudovirus neutralization [7]: 0.013 µg/mL
IC50, pseudovirus neutralization [8]: 0.019 µg/mL
IC80, pseudovirus neutralization [8]: 0.092 µg/mL
IC50, pseudovirus neutralization [9]: 1.22 µg/mL
IC80, pseudovirus neutralization [9]: 10.1 µg/mL
IC50, pseudovirus neutralization [10]: 0.331 µg/mL
IC80, pseudovirus neutralization [10]: 3.67 µg/mL
IC50, pseudovirus neutralization [11]: 0.213 µg/mL
IC80, pseudovirus neutralization [11]: 2.2 µg/mL
IC50, pseudovirus neutralization [12]: 0.806 µg/mL
IC80, pseudovirus neutralization [12]: 2.93 µg/mL
IC50, pseudovirus neutralization [13]: > 50 µg/mL
IC80, pseudovirus neutralization [13]: > 50 µg/mL
IC50, pseudovirus neutralization [14]: 0.037 µg/mL
IC80, pseudovirus neutralization [14]: 0.245 µg/mL
